Measured values: patent US8697369B2, “Method for screening a test substance for activating a receptor associated with FGF 21 activity” (National Institute of Advanced Industrial Science and …, priority 2007, dated 2014)

Target: T1, betaKlotho-expressing BaF3 cells (Mus musculus, UniProt Q99N32)
T1 construct: the entire-length cDNA of mouse betaKlotho was cloned into an animal cell expression vector; expressed in transfected cells; host or cells: BaF3 (mouse pro-B) cells
T1 sequence (Q99N32 1-1043): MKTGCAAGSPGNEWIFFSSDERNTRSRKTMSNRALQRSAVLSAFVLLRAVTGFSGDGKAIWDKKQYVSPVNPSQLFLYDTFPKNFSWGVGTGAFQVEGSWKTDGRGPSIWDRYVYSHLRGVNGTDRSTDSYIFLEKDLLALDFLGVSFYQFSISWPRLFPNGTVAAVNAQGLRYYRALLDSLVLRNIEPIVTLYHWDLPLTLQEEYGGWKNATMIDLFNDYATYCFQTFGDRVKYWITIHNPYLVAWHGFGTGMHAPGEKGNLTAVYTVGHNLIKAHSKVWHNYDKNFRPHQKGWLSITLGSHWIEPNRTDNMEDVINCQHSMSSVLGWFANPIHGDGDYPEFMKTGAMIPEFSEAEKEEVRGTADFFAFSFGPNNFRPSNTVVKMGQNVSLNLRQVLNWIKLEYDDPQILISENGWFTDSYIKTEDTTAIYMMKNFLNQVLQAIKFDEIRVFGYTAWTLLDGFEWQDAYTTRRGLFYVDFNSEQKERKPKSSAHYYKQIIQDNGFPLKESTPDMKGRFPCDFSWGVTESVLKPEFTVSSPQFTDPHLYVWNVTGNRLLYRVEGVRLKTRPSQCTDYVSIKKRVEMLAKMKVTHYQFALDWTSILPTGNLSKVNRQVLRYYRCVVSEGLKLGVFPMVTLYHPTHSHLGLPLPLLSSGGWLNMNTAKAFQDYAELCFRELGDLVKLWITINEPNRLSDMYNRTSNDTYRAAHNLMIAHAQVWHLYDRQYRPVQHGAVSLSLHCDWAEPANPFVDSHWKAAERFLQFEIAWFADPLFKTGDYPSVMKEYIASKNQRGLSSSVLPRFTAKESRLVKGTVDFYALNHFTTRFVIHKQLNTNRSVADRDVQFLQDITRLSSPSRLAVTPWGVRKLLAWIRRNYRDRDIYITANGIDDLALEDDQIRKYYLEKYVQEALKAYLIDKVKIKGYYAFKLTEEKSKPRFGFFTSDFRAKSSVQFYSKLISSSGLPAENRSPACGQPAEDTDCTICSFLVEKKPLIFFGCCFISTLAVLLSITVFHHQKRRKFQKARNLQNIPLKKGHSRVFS
Experiment: DNA synthesis (thymidine incorporation) in BaF3 cells expressing only betaKlotho
Type: cell-based
Conditions: presence or absence of heparin
Method: A commonly used measurement method is a cell growth stimulating activity measurement method described in Ornitz, D. M., Xu, J., Colvin, J. S., McEwen, D. G., MacArthur, C. A., Coulier, F., Gao, G. and Goldfarb, M. (1996) Receptor specificity of the fibroblast growth factor family. J Biol Chem, 271, 15292-15297. The summary thereof is as follows. FGF used as a measurement target is added to a culture solution containing a cultured cell having an FGF receptor on the surface thereof, and the obtained mixture is cultured for a certain period of time. Thereafter, a labeled thymidine is added to the culture solution, followed by further culture for a certain period of time. By measuring the amount of the labeled thymidine incorporated into polymeric DNA during the culture, the degree of FGF to activate DNA synthesis is evaluated. (In the present invention as well, this method was adopted when the activity of FGF21 was measured in Examples 4, 5, 6, 8, 9, and 10.) […]
Immediately after inoculation, BaF3 cells that had expressed each clone and only FGFR1c were stimulated by addition of FGF21 (open bar) or PBS (filled bar) used as a control in the presence of heparin, and they were then cultured for 42 hours. […] Thereafter, the amount of thymidine incorporated into the cells was measured, so as to evaluate DNA synthesis. […]

DNA synthesis (thymidine incorporated into the cells): did not react with FGF21
B1: FGF21: fibroblast growth factor 21; mouse-derived protein used in Examples 1-7 and 10-13 (protein)
chain: AYPIPDSSPLLQFGGQVRQRYLYTDDDQDTEAHLEIREDGTVVGAAHRSPESLLELKALKPGVIQILGVKASRFLCQQPDGALYGSPHFDPEACSFRELLLEDGYNVYQSEAHGLPLRLPQKDSPNQDATSWGPVRFLPMPGLLHEPQDQAGFLPPEPPDVGSSDPLSMVEPLQGRSPSYAS
